Literature values as cited in paper PMC12114883.

Target: CLV1 (Arabidopsis thaliana) (UniProt Q9SYQ8)
Chain of UniProt Q9SYQ8 (Q9SYQ8 25-638): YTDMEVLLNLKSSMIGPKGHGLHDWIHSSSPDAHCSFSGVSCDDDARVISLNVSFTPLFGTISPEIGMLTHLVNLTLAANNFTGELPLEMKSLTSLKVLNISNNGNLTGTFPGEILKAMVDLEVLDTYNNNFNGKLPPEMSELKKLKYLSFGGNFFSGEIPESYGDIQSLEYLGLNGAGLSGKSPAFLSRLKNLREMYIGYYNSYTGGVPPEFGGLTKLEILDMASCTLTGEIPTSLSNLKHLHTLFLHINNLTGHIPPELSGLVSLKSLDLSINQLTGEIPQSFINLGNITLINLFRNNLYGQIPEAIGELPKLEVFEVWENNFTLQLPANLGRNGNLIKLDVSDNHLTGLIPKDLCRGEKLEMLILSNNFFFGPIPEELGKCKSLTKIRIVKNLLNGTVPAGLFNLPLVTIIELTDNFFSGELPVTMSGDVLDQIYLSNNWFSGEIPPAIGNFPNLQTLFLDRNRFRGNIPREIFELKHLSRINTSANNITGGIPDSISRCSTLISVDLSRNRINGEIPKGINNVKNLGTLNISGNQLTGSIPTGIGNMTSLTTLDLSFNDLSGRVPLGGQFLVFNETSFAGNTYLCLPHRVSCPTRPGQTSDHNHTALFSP

Kd: 17.5 nM
Substance: CLV3 (from UniProt Q9XF04)
